Data on one molecule can be found in article PMC5872055, “A Low-Cost Inkjet-Printed Aptamer-Based Electrochemical Biosensor for the Selective Detection of Lysozyme”.

The target in this data set is lysozyme (chicken (egg white), UniProt P00698 19-147). The experiment in a line: electrochemical impedance spectroscopy (Rct decrease); 0-20 ug/mL lysozyme, 15 min; sensor LOD 90 ng/mL (not a Kd); EIS: proteins in 50 mM phosphate buffer (PBS) pH 7.4, 15 min incubation, rinse with PBS and DI water, then ferro-/ferricyanide read-out; SWV: 10 mM PBS; temperature not stated. The settings on record: protein: commercial.
lysozyme, sequence (P00698 19-147): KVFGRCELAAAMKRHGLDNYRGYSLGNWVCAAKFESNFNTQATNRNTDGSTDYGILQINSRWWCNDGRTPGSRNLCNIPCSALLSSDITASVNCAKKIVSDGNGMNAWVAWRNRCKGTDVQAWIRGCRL

B1: anti-lysozyme aptamer (30-mer) (ssDNA)
DNA: ATCAGGGCTAAAGAGTGCAGAGTTACTTAG
B1: the binding result is reported as “binds”.
